Results reported in article PMC2192648.
Where two headings read alike, the source gives them in different places.

Legend:
Assay in all cases: cross-linking + co-IP
[1] = biological target: Vps35p (S. cerevisiae (endogenous in strain AHY63)) (UniProt P34110)
A-ALP (S. cerevisiae) [2] = biological target: A-ALP (S. cerevisiae)
A-ALP (S. cerevisiae) [3] = biological target: A-ALP (S. cerevisiae); remark: listed apart in the source
A-ALP (S. cerevisiae) [4] = biological target: A-ALP (S. cerevisiae); remark: listed apart in the source

Molecule | percent of A-ALP immunoprecipitated by anti-Vps35p after cross-linking [1] [%] | percent of total Vps35p cross-linked (A-ALP (S. cerevisiae) [2]) [%] | percent of total Vps35p cross-linked (A-ALP (S. cerevisiae) [3]) [%] | percent of total Vps35p cross-linked (A-ALP (S. cerevisiae) [4]) [%]
A-ALP | 5 | – | – | –
Vps35p (natural protein) MAYADSPENAIAVIKQRTALMNRCLSQHKLMESLQHTSIMLTELRNPNLSPKKYYELYVIIFDSLTNLSTYLIENHPQNHHLADLYELVQYTGNVVPRLYLMITVGTSYLTFNEAPKKEILKDMIEMCRGVQNPIRGLFLRYYLSQRTKELLPEDDPSFNSQFIMNNFIEMNKLWVRLQHQGPLRERETRTRERKELQILVGSQLVRLSQIIDDNFQMYKQDILPTILEQVIQCRDLVSQEYLLDVICQVFADEFHLKTLDTLLQTTLHLNPDVSINKIVLTLVDRLNDYVTRQLEDDPNATSTNAYLDMDVFGTFWDYLTVLNHERPDLSLQQFIPLVESVIVLSLKWYPNNFDNLNKLFELVLQKTKDYGQKNISLESEHLFLVLLSFQNSKLQLTSSTTAPPNSPVTSKKHFIFQLISQCQAYKNILALQSISLQKKVVNEIIDILMDREVEEMADNDSESKLHPPGHSAYLVIEDKLQVQRLLSICEPLIISRSGPPANVASSDTNVDEVFFNRHDEEESWILDPIQEKLAHLIHWIMNTTSRKQTMKNKIQFSLEAQLEILLLIKSSFIKGGINVKYTFPAIITNFWKLMRKCRMIQEYLLKKRPDNKTLLSHYSNLLKQMFKFVSRCINDIFNSCNNSCTDLILKLNLQCAILADQLQLNEISYDFFSQAFTIFEESLSDSKTQLQALIYIAQSLQKTRSLYKEAYYDSLIVRCTLHGSKLLKKQDQCRAVYLCSHLWWATEISNIGEEEGITDNFYRDGKRVLECLQRSLRVADSIMDNEQSCELMVEILNRCLYYFIHGDESETHISIKYINGLIELIKTNLKSLKLEDNSASMITNSISDLHITGENNVKASSNADDGSVITDKESNVAIGSDGTYIQLNTLNGSSTLIRGVVATASGSKLLHQLKYIPIHHFRRTCEYIESQREVDDRFKVIYV | – | 16 | 10 | 26
